Source: patent EP1616575B1 (ZymoGenetics, Inc., dated 2012)

Key:
[1] = biological target: T1, IL-20RA/IL-20RB heterodimeric receptor (human, UniProt Q9UHF4 30-553; Q6UXL0 30-311); experiment: 125I-IL-20 binding to BHK cells stably transfected with IL-20RA and IL-20RB
T1 construct: Both subunits co-expressed on cells: transfected COS, BHK and BaF3 cells, and endogenous on HaCaT keratinocytes; also called IL-20 receptor; IL-20RB-IL-20RA heterodimer
T1 sequence 1: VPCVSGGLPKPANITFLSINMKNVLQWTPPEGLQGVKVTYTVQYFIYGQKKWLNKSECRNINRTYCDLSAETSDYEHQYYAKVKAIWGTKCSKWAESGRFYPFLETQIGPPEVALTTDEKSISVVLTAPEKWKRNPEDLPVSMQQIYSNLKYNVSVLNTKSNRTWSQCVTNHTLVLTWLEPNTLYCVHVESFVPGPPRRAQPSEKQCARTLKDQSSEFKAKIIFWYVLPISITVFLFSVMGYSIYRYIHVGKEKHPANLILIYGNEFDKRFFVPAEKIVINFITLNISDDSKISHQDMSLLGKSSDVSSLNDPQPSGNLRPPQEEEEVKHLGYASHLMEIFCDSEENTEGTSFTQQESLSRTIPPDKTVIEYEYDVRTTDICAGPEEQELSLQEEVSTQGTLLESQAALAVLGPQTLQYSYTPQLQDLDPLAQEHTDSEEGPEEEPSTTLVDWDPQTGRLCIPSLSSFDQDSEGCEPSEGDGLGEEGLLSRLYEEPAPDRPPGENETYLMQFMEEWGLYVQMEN
T1 sequence 2: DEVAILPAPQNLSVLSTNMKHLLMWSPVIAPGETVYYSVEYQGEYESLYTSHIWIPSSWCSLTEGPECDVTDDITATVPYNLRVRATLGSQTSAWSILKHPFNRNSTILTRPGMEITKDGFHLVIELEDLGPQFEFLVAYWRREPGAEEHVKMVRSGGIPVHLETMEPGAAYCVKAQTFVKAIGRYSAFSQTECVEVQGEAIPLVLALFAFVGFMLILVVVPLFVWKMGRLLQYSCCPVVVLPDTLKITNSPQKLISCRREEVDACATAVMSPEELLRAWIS

IL-20RA = biological target: T2, IL-20RA (human, UniProt Q9UHF4 30-553); experiment: radiolabeled IL-20 binding to BHK cells stably transfected with IL-20RA alone
T2 construct: Expressed alone on stably transfected BHK cells; also called Zcytor7; IL-20RA receptor subunit alone
T2 sequence: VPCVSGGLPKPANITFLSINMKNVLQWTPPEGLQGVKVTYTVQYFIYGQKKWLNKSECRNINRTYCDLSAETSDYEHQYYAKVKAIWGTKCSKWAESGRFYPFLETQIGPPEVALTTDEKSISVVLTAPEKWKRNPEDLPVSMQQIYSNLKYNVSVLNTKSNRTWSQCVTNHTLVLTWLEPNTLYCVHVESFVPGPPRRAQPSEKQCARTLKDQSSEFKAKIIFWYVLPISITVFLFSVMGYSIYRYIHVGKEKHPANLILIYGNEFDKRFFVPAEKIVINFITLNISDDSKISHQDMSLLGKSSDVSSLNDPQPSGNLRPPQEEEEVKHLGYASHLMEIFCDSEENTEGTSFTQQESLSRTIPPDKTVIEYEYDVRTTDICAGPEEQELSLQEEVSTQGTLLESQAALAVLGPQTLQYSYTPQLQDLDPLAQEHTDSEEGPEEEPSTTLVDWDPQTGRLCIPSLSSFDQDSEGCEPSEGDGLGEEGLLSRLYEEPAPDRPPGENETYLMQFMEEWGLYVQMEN

IL-20RB = biological target: T3, IL-20RB (human, UniProt Q6UXL0 30-311); experiment: radiolabeled IL-20 binding to BHK cells stably transfected with IL-20RB alone
T3 construct: Expressed alone on stably transfected BHK cells; also called IL-20RB receptor subunit alone
T3 sequence: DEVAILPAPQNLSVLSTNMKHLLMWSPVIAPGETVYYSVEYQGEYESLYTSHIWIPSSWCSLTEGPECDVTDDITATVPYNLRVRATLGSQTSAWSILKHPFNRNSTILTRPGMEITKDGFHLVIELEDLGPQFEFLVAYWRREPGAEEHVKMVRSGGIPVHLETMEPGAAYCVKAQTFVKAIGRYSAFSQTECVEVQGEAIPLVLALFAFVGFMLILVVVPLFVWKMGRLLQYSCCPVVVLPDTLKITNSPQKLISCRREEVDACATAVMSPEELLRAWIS

- Kd [1]: ~1.5 nM
- binding result (IL-20RA): no binding
- binding result (IL-20RB): no binding
B1: IL-20 (ligand, UniProt Q9NYY1 25-176, looked up)
chain: LKTLNLGSCVIATNLQEIRNGFSEIRGSVQAKDGNIDIRILRRTESLQDTKPANRCCLLRHLLRLYLDRVFKNYQTPDHYTLRKISSLANSFLTIKKDLRLCHAHMTCHCGEEAMKKYSQILSHFEKLEPQAAVVKALGELDILLQWMEETE
notes: also called Zcyto10; biotin-labeled IL-20 protein
